Target: Mac2 (SUD-N, macrodomain II) of SARS-CoV Nsp3, purified (SARS-CoV (strain Frankfurt))
Experiment: ITC; […] ([…]) […] ([…]) […]; 25°C; VP-ITC; 20 mM Tris–HCl pH 8.5, 150 mM NaCl

B1: middle domain of human Paip1 (Paip1M), purified (domain or fragment)
chain: GSHMASMTGGQQMGRGSTLSEYVQDFLNHLTEQPGSFETEIEQFAETLNGCVTTDDALQELVELIYQQATSIPNFSYMGARLCNYLSHHLTISPQSGNFRQLLLQRCRTEYEVKDQAAKGDEVTRKRFHAFVLFLGELYLNLEIKGTNGQVTRADILQVGLRELLNALFSNPMDDNLICAVKLLKLTGSVLEDAWKEKGKMDMEEIIQRIENVVLDANCSRDVKQMLLKLVELRSS
Question: For B1, which Kd is on record?
Answer: The Kd was 15.5 µM.

Question: And the dH?
Answer: Its dH is -6.78 kcal/mol.

Question: What about the stoichiometry N of the same binder?
Answer: The stoichiometry N was 0.94.

— publication PMC8167360
